Test results as given in the DeepSol protein solubility set.

Assay: soluble on expression in E. coli; label from the status in PepcDB or PDB records

Soluble on expression in E. coli, not soluble:
MGSDKIHHHHHHMDSVSPELISNNQGYDRSHKQRLECLICNYHVDLNDKSAFSTFFCNVRAFRDEKFPIWRCPTCQTIHCLDVVDIDSYYAKYPFAEAKLTLPFRLCYQNLCQKMIEHGFSKTHSFLDYGCGNGLVVQYLRENGFANAYGYDPYAPKESFGDATVLQRGPFDYILLQDIIEHVEDPHALLSKLDSLLAPGGYLLLGTPNATNIDINRPELSNYYNAVHVPYHIHIYTREVVESLGKQQGWEVVKFFNRGYDDTRWFGLNTRTWNEYQSISDGTFDVIFEEINIWQALKSYRFLFYAFFGYWLSLRTDMTIMFRKKITD, MGSDKIHHHHHHMDTKAFKRALHQSDRYNRKGFGKTTDVSGALESAYQSDLIQSLRQNGYRLQRGEITIRLAEAFGFCWGVERAVAIAYETRQHFPQERIWITNEIIHNPSVNQHLREMSVEFIPCERGEKDFSVVDRGDVVILPAFGASVQEMQLLDEKGCHIVDTTCPWVSKVWNTVEKHKRGAHTSIIHGKYNHEETVATSSFAETYLVVLNLEQAQYVCDYILNGGDRDEFMTRFGKACSAGFDPDRDLERIGIANQTTMLKSETEAIGKLFERTLLKKYGPQALNDHFLAFNTICDATQERQDAMFQLVEEPLDLIVVIGGFNSSNTTHLQEIAIERQIPSFHIDAAERIGPGNRIEHKPLHTDLTTTEPWLPAGPLTIGITSGASTPDKVVEDVIERLFDLQRS, MGSDKIHHHHHHMDYPQQHIKPYNEDGKKTEQVERMFDNIAHAYDKLNHTLSLGIDRSWRRKAIAWLRPFRPQHIMDVATGTGDFAILACRELNPDELIGTDISEGMMNVGREKVKKEGLSDKISFAREDCTSLSFADNRFDAITVAFGIRNFEDLDKGLSEMCRVLKPGGHLVILELTTPDRFPMKQLFAIYSKVVIPLLGKLLSKDNSAYHYLPDTIKVFPQGEVMKGVISKTGFGEVHFRRLTFGICTLYTATK, MGSDKIHHHHHHMDYRQPDLSVITVNYNGFHDTCEFIDSWAATVFSVSYEMIVIDNGSTANEAALLQKTYPFIQAVRSERNLGFAGGNNLGINLAKGKYLFLLNNDVCMVKDAIPLLIKRLLSSDKIAGVSPLIRDYAEPHAIQFAGYTQLSPITLRNRAIGKGKINKDHYPAQKTPYLHGAAMLLKKTIIDKLSLMPEEYFLYYEELDWCTYINREGYELWYDPACEIWHKDSSSTGKESPLKYYYLSRNRLLYAYRNLFDWKLPVSILYQTMIVCPKNILTALGKGKKAIAKAHWEGTKAFFKLRNKDKQP, MGSDKIHHHHHHMEAADASRSNGSSPEARDARSPSGPSGSLENGTKADGKDAKTTNGHGGEAAEGKSLGSALKPGEGRSALFAGNEWRRPIIQFVESGDDKNSNYFSMDSMEGKRSPYAGLQLGAAKKPPVTFAEKGELRKSIFSESRKPTVSIMEPGETRRNSYPRADTGLFSRSKSGSEEVLCDSCIGNKQKAVKSCLVCQASFCELHLKPHLEGAAFRDHQLLEPIRDFEARKCPVHGKTMELFCQTDQTCICYLCMFQEHKNHSTVTVEEAKAEKETELSLQKEQLQLKIIEIEDEAEKWQKEKDRIKSFTTNEKAILEQNFRDLVRDLEKQKEEVRAALEQREQDAVDQVKVIMDALDERAKVLHEDKQTREQLHSISDSVLFLQEFGALMSNYSLPPPLPTYHVLLEGEGLGQSLGNFKDDLLNVCMRHVEKMCKADLSRNFIERNHMENGGDHRYVNNYTNSFGGEWSAPDTMKRYSMYLTPKGGVRTSYQPSSPGRFTKETTQKNFNNLYGTKGNYTSRVWEYSSSIQNSDNDLPVVQGSSSFSLKGYPSLMRSQSPKAQPQTWKSGKQTMLSHYRPFYVNKGNGIGSNEAP, MGSDKIHHHHHHMEAVERVNLLGLDGAALSELVGQWGGKPFRARQLQRWVHQRGADSFDAMTDLARDFRAQLARDCVIEALPVNTEQRSSDGTRKWLFDVGQGNAIETVFIPEDDRGTLCISSQAGCVVNCRFCSTGHQGFNRNLRASEIIGQLWWAKRVLEAAADTARLPGGKAGEDTRVISNVVMMGMGEPLLNYDQVLPALRLMLDDNAYGLSRRRVTVSTSGVVPMMDRLSQDCPVALAVSLHAPNDALRDELVPLNKKYPLNALLAACERYLAHAPRDFITFEYCMLDGINDTDQHARELIQLARQVRCKLNLIPFNPFPASGLKRSPSARVRVFAQRLMDAGIVTTVRKTRGDDIDAACGQLAGEVRDRTRITERNATRTIPIQQVHA, MGSDKIHHHHHHMEEITKIESIDQYDQLFGLETLHPLVNVIDFSKATKTVDYYRMNIGFYSLFLKDAKCGDLRYGRKYYDYQEGTVVCMAPGQVIGIDNRKQTPIRTKSIGLLFHPDLIRGTSLGQNIKHYSFFSYEVNEALHLSEQEREIVTDCIHKIQIELEHAIDKHSKQLIVRNIELLLDYCMRFYERQFITRNQANKDIIVKFEQLLDEYFQNQTALTEGLPSVKYFADKVCLSSNYFGDLIKKETGKTAQEYIQHRIIELAKERILEGSQTVSQIAYELGFQYPQHFSRLFKKNVGCTPNEYKQQN, MGSDKIHHHHHHMEEVINGILIREVETKNIMTKSSLPVGGYSVNPYVGCTHACKYCYASFMKRFTGHKEEWGTFLDVKHWPEIKNPKKYAGQRVVIGSVTDGYNPQEEQFGNTRKLLEQLIGSDADILICTKSDLVVRDIDLLKKLGRVTVSWSINTLDENFKNDMDSASSIERRISAMKQVYESGIRTVCFVSPVFPGITDFEAIFERVKDQCDLFWLENLNLRGGFKKTIMDYITGQYPDLVPLYDEIYNKHNRSYFEALEVKAEKMAKKYDCAFVDNEMPYGRVPQGHPVIVDYFYHEEIRGTENTGKRNR, MGSDKIHHHHHHMEFEFCVQDPTDPGTRYLYEAIIGAAADATTWRGMYAFATRGGVDQLIEDPVVHEFMRRGGEIDLIVGIDAVTNRQTLERMQALEERHEHFHPKVFWNTTGGLFHPKISHFGYADGRTKLILGSGNLTPGGLRHNFEGYSVISGGRREAIDLSSLDAFIARHEADIRPIDQAALDRAALNIVRPVAALPGPRAPQLRPPRAVSREAVLDRILLAQVPAAGGRWSQVHFNTQITEQYFRVTDVATQRVYLTSIDAAGLRGEEEVRPVVFSQANGNHKIEIAAAKGLDYPDSPPLLVFRERQVRCFDYMLLMPDSPGYGELLGLSQALPTIGRGLRRAITDMATLSQAWPACPLLTAGDALDQTI, MGSDKIHHHHHHMEFHEIDRMAKKLGADIFGVADLDLLREYETFPENLLDSFDFGISIGVKLPDPLFDMLPDSRNLYSRYYVVANDMLDRIAFEISRAIESEGYEALPIPASKVLSDLHWRSYVSHKAIARAAGVGWVGRNLLLITPQFGPRVRLASVLTDMPLKAGKPARNRCGVCRECIDSCITQALRYSEFDDYPERDEVFEVDKCAAKLKEFASNPDIGTMVCGICIKVCPWGKLGNKTKGN, MGSDKIHHHHHHMEHNRVLRLEHGINFRELGGYENTAGQTIKWQKLLRCGGMSLLTNRDLTYLDNYGLRYDIDLRQANEAEMSPDRYPKNTKYINTSVYPFTDNRRFDRRLKRLIKRMVVDDSFNAQTYAQMITDSHAVKVWQNLFATLLANDQPDQSVLFHCAAGKDRTGVAGALIMTALDVPRETIMQDYLLTNAVFMAADSMDTATIITKANAGDLASQFNVAMAVEADNMKMVFRVFDDLYGNGIGYLREVLGLSVADINNLRQLYLND, MGSDKIHHHHHHMEIEAVEKEAIEKLSKISNVQELESFRIEFLGKKGKITGLMKNLKNLPPEERPAYGKRVNELREKIEKLFEEKRQQIQRILEQEKMEKMRIDVTVPGARRKLGHSHPVLKVMEEIERIFVSMGFDVVEGPEIETTWHNFDALNTPEWHPARDEHDSFYITDDLLLRTHTSPVQIRTMLERKPPIAIISPGKVYRRDYDATHLPMFHQVEGLHVDRDLSVAHLKFTLEEFARRMFGEGAKVRLRPSFFPFTEPSFEVDVYLSGYGWLEILGAGMVDPNVFLNVGYDPEEWTGYAFGMGVERIAMLKYGIADIREFVRNDVRFLSSY, MGSDKIHHHHHHMEIHSSAAAEVFPVCRSLLGKLPAHSHNRSVAPTVCDYYPQIMKTYNSKMTTQHSSDIRNSQNISASFVTPHDAPVTSRKYVPKFNSNNHRIKTAAAFEKGSDIYHAVRPNYPNSVIELLNLSPNSRVLDIGCGTGKLTEQIAQQTSSVYALDPSKDMLDSFRSTLDIPSWQATAEQTAVSDSRFSTLTCAQTWHWVEPLAASAELDRISTDDAQLLLVWNTLDVSVPWVHRLSRIMHSGDTLAEGFIPHVAQPWELVSVLRGKHAQELYPDQIHTLAHTRSYWLRASEKTREKLTHNLSWYLTDHLELPSTSLVEIPYRFDAFLYKKALVKTQ, MGSDKIHHHHHHMEIKQLRYFIEVAKREHISETALELNIAQSAISRQITLLEQELNVSLFKKQGRNITLTSEGKLLFNEALRIIEHLDSTIEQFQSHGLTKNKSIYIGYDESDVSHMLLPLIQTFHLQNDTHVIPSLLDHDTIINSVLNGNIDIGFTELTPEIRKHKQLHMLPLFEEHYHLYAPSDDPITMATHPPLIQFEHSHIYCLAPFAETVKKQLRKITKSDVYTISSQPLAQYLLRQKEGYIISSQNIHLPESKSWIDIKLDHTELKRTICAITKEPYTKSDIGILLTLIQQLMTKTSTFH, MGSDKIHHHHHHMEILMLKTFKAVVDEDGIKGAADKLHTVQSNITSRIKKLEKELDTKLFTIIGRKLQLTPSGQQLCEYADQILQLEYQATSAILRNKGTYELRVGMPETFAAVHMPMALKKLKLNHAEIRTKIHTDTSERLVFSVLNNKVDCAAIGNAPKHENLIIIPIVKEELIMVTPRDSEHDPVLFVRDEGCGYRKHALIWQQKAGRGNDELMVMSSADGVLGCIAAGLGYTIIGKNMVAGSRYEKSLVMTPVSHGPKHVQLSIVYRKDSPLESGILTLAKLLTK, MGSDKIHHHHHHMEKDIFVELNFLIMIIDDALPKFDLPVDFVTDDSITGDILNQYGRFPCHIKAGVFVLCTRGTVRATINLSEYTITHNDFVTVLPGSFIQIHEVSSDTRVCFAGFSSEFISRVSYVETYLDFLPMILDNPIMALQEEVAQLYRNAFSLLIRAYSLPNTLDNKEILMSIFTIFFQGVGELYKRCKPTTNEPIKREHELYRQFIQLLMTHYTQEHEVSFYAKKCGVTPAHFSGAIRKASGHSPLAIITGIIIMNAKAQLKSTRLPVKEIAFSLGFNNLSFFNKYFRKHVKMTPQEYREC, MGSDKIHHHHHHMEKEIPEMFASNYQDWQPIYNWDTCKAGRKEYGKFLCSFLTSSKDDLVVNLNGSWGTGKTELLRRLYVELAERQHPVVYINAWESDFCDDALSVISSEFLNQLEVAFGHNGDPKWLSKFNNLKQKLGKALKFGSLGATMNGEPNAATLLGATSAAVNELPDLASAAVSDNNIRLIEKISSNHANRVQAMKEVREQISALADTMQMVCEAELPIVVLVDELDRCRPTYAIEMLEVIKHFFEARGCVFLVATDTVALEHSIKAVYGASFESEKYLRRFFDRRIALPPLSITQYLKAKALDFTRYQTDQLRLFPFTAINAQLIKIFALLFENAQMSLRDVEQSLQKCVASLEYLQSLGTRPQIVNVIVLMMGSLSSNYRPNRFRIDLQIKYFPMELV, MGSDKIHHHHHHMEKLYLKIGNQDEFDICEKVQGLHFLSDDSTPVTTNQFLEISGADGSQFQYATFGKYQVVANFFLEFKSWEDYKLAKHQINRIFSTKKLIRMRTNVESAIVRYVYPNFPEIKPISDGANSSTFSVNFDNPSGYRYSIDRSDELSKVQYGMYLLDNIYPEYRFTDKSFRVYNPSDIAIDPYLGKHDLKIISKFSGNSLKITNTTNGTSWSYNKSSNGSETVLLDGIVTTVNGNPATVNTDYGHIVLNTGWNDIVVSGTNSNDITFSFPFIYI
